Source: paper PMC3174958

Target: EPO-hyFc (human)
Assay: Western blotting; purified EPO-hyFc blotted with anti-EPO and anti-human IgG antibodies; gel conditions not told

stoichiometry N: 2
Substance: EPO-hyFc (Fc fusion)
